In this data set the target is prostate-specific antigen (PSA) (UniProt P07288 25-261). The data set is described as follows: electrochemical impedance spectroscopy; Apt-ADA on CD-AuNFs/rGO/SPCE; charge transfer resistance rises with PSA; PBS (detection limit measurement); binding buffer details, pH and temperature not given in the material. As to conditions: protein: commercial; hairpin.
Chain of prostate-specific antigen (PSA) (P07288 25-261): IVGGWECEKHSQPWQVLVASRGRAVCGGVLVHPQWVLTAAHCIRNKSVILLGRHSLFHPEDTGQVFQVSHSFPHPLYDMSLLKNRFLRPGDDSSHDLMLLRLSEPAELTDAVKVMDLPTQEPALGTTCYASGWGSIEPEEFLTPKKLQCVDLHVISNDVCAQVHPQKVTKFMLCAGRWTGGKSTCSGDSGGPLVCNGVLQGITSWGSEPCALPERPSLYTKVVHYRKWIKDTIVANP

B1: anti-PSA aptamer-adamantane conjugate (Apt-ADA) (structured_DNA)
DNA: TTTTTAATTAAAGCTCGCCATCAAATAGCTTT
modifications: 5' amino-C6 coupled to 1-adamantanecarboxylic acid
On to B1, for which the binding result is on record as “binds”.

Source of the values: paper PMC11478330, “Sandwich-Type Electrochemical Aptasensor with Supramolecular Architecture for Prostate-Specific Antigen”.
